Measurements published in patent US8563314.

Tests used:
Experiment in all cases: cell_activity
ZFN 12971 (synthetic) = conditions: pair with 12934, day 3, K562
ZFN 12972 (synthetic) = conditions: pair with 12934, day 3, K562
ZFN 25030 (synthetic) = conditions: pair with 12942, PBMC, 37C day 3; F3 printed RPMHUTN
ZFN 25006 (synthetic) = conditions: pair with 12942, PBMC, 37C day 3
ZFN 25022 (synthetic) = conditions: pair with 12942, PBMC, 37C day 3
ZFN 25036 (synthetic) = conditions: pair with 12942, PBMC, 37C day 3; helices printed identical to 25031
ZFN 25031 (synthetic) = conditions: pair with 12942, PBMC, 37C day 3
ZFN 25029 (synthetic) = conditions: pair with 12942, PBMC, 37C day 3
ZFN 25010 (synthetic) = conditions: pair with 12942, PBMC, 37C day 3
ZFN 18759 (synthetic) = conditions: pair with 12942, PBMC, 37C day 3
ZFN 25025 (synthetic) = conditions: pair with 12942, PBMC, 37C day 3
ZFN 25012 (synthetic) = conditions: pair with 12942, PBMC, 37C day 3
ZFN 25017 (synthetic) = conditions: pair with 12942, PBMC, 37C day 3
ZFN 25023 (synthetic) = conditions: pair with 12942, PBMC, 37C day 3
ZFN 25011 (synthetic) = conditions: pair with 12942, PBMC, 37C day 3
ZFN 25034 (synthetic) = conditions: pair with 12942, PBMC, 37C day 3
ZFN 25032 (synthetic) = conditions: pair with 12942, PBMC, 37C day 3
ZFN 25027 (synthetic) = conditions: pair with 12942, PBMC, 37C day 3
ZFN 25015 (synthetic) = conditions: pair with 12942, PBMC, 37C day 3; helices printed identical to 25014
ZFN 25041 (synthetic) = conditions: pair with 12942, PBMC, 37C day 3
ZFN 25005 (synthetic) = conditions: pair with 12942, PBMC, 37C day 3
ZFN 25016 (synthetic) = conditions: pair with 12942, PBMC, 37C day 3
ZFN 25040 (synthetic) = conditions: pair with 12942, PBMC, 37C day 3
ZFN 25014 (synthetic) = conditions: pair with 12942, PBMC, 37C day 3
ZFN 25028 (synthetic) = conditions: pair with 12942, PBMC, 37C day 3
ZFN 25013 (synthetic) = conditions: pair with 12942, PBMC, 37C day 3
ZFN 12934 (synthetic) = conditions: pair with 12971 or 12972, day 3, K562
ZFN 12942 (synthetic) = conditions: pair with 12947, day 3, K562

Which results are given for “CTGTGGACTATGGGGAGCTGGATTTCCA (double strand) [PD1 exon 5 12971/12972 site]”?
activity (ZFN 12971 (synthetic)): 11 % NHEJ; activity (ZFN 12972 (synthetic)): 11 % NHEJ

“CAGTCGTCTGGGCGGTGCT (double strand) [PD1 exon 1 18759/250xx site]” was tested. Which activity (ZFN 25030 (synthetic)) did it give?
The activity was 7.6 % NHEJ.

And the activity (ZFN 25006 (synthetic))?
The activity was 2.9 % NHEJ.

What about the activity (ZFN 25022 (synthetic)) of the same sequence?
Its activity is 3.6 % NHEJ.

And the activity (ZFN 25036 (synthetic))?
Its activity is 8.3 % NHEJ.

What about the activity (ZFN 25031 (synthetic)) of the same sequence?
Its activity is 9.4 % NHEJ.

What about the activity (ZFN 25029 (synthetic)) of the same sequence?
The activity was 8.1 % NHEJ.

What about the activity (ZFN 25010 (synthetic)) of the same sequence?
Its activity is 4.9 % NHEJ.

What about the activity (ZFN 18759 (synthetic)) of the same sequence?
The activity was 4.7 % NHEJ.

What about the activity (ZFN 25025 (synthetic)) of the same sequence?
Its activity is 8.8 % NHEJ.

What about the activity (ZFN 25012 (synthetic)) of the same sequence?
The activity was 5.9 % NHEJ.

And the activity (ZFN 25017 (synthetic))?
Its activity is 7.7 % NHEJ.

What about the activity (ZFN 25023 (synthetic)) of the same sequence?
Its activity is 3.1 % NHEJ.

And the activity (ZFN 25011 (synthetic))?
The activity was 3.1 % NHEJ.

What about the activity (ZFN 25034 (synthetic)) of the same sequence?
The activity was 4.9 % NHEJ.

What about the activity (ZFN 25032 (synthetic)) of the same sequence?
Its activity is 6.7 % NHEJ.

What about the activity (ZFN 25027 (synthetic)) of the same sequence?
Its activity is 6 % NHEJ.

What about the activity (ZFN 25015 (synthetic)) of the same sequence?
Its activity is 3.9 % NHEJ.

And the activity (ZFN 25041 (synthetic))?
Its activity is 7.9 % NHEJ.

What about the activity (ZFN 25005 (synthetic)) of the same sequence?
Its activity is 4.4 % NHEJ.

What about the activity (ZFN 25016 (synthetic)) of the same sequence?
Its activity is 7.3 % NHEJ.

What about the activity (ZFN 25040 (synthetic)) of the same sequence?
The activity was 6.1 % NHEJ.

What about the activity (ZFN 25014 (synthetic)) of the same sequence?
The activity was 10.7 % NHEJ.

What about the activity (ZFN 25028 (synthetic)) of the same sequence?
Its activity is 4.3 % NHEJ.

What about the activity (ZFN 25013 (synthetic)) of the same sequence?
The activity was 3.7 % NHEJ.

With “GAACACAGGCACGGCTGAGGGGTCCTCC (double strand) [PD1 exon 5 12934 site]” as the sequence, how does the activity (ZFN 12934 (synthetic)) read?
The activity was 11 % NHEJ.

Which activity (ZFN 12942 (synthetic)) does the source give for “CCAGGGCGCCTGTGGGATCTGCATGCCT (double strand) [PD1 exon 1 12942 site]” here?
Its activity is 10 % NHEJ.
